Results taken from patent US7119066 (Regeneron, dated 2006).

Experiments:
[1] = target: T1, rat CNTF receptor on rat superior cervical ganglia (SCG) neurons (rat, UniProt Q08406 23-342); experiment: competition with 125I-rat CNTF on rat SCG neurons
T1 construct: whole, on cells; also called rat SCG neurons; rat receptor
T1 sequence (looked up): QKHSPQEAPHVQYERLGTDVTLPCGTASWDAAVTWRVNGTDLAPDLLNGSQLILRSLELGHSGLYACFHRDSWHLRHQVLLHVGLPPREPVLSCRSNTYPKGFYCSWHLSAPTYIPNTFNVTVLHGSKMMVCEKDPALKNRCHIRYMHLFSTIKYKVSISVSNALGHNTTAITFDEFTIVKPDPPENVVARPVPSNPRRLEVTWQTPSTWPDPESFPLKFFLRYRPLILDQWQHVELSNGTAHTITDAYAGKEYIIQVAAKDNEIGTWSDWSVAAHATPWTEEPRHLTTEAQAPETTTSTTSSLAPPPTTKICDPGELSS
Description: Growth medium consisted of Ham's nutrient mixture F12 with 10% heat-inactivated fetal bovine serum (Hyclone), nerve growth factor (NGF) (100 ng/ml), penicillin (50 U/ml) and streptomycin (50 µg/ml). Cultures were maintained at 37° C. in a humidified 95% air/5% CO_2 atmosphere. Ganglion non-neuronal cells were eliminated by treatment with araC (10 µM) on days 1 and 3 of culture. Cultures were fed 3 times/week and were routinely used for binding assays within 2 weeks.
(§1) Binding was performed directly on cell monolayers. Cells in culture wells were washed once with assay buffer consisting of phosphate buffered saline (PBS; pH 7.4), 0.1 mM bacitracin, 1 mM PMSF, 1 µg/ml leupeptin, and 1 mg/ml BSA. […] Non-specific binding was determined in the presence of 1,000-fold excess of unlabelled CNTF. Specific binding towards MG87/CNTFR was 80–90%. Data were analyzed using the […] program (ISI, Philadelphia, Pa.).

[2] = target: T2, human CNTF receptor alpha-component on MG87/CNTFR fibroblasts (human, UniProt P26992 23-342); experiment: competition with 125I-rat CNTF on MG87/CNTFR cells
T2 construct: whole, on cells; also called huCNTFR; CNTFRα
T2 sequence (looked up): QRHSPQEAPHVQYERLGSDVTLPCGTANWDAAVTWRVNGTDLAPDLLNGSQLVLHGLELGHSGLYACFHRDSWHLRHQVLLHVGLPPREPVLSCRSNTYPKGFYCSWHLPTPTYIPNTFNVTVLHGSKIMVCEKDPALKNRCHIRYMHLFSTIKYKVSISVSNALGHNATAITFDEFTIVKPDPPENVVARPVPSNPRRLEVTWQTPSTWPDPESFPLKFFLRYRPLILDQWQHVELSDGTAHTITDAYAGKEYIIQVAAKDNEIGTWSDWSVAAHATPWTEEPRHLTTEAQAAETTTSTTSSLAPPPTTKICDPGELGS
Description: as §1
Similar results were obtained from competition experiments with mouse fibroblasts transfected with a plasmid directing the expression of the human CNTF receptor (FIG. 4b).

fold less potent than unlabelled rat CNTF [1]: 90 times
fold less potent than rat CNTF [2]: 12 times
B1: recombinant human CNTF (ciliary neurotrophic factor) (ligand)
chain: MAFTEHSPLTPHRRDLCSRSIWLARKIRSDLTALTESYVKHQGLNKNINLDSADGMPVASTDQWSELTEAERLQENLQAYRTFHVLLARLLEDQQVHFTPTEGDFHQAIHTLLLQVAAFAYQIEELMILLEYKIPRNEADGMPINVGDGGLFEKKLWGLKVLQELSQWTVRSIHDLRFISSHQTGIPARGSHYIANNKKM
notes: also called rHCNTF; hCNTF
